Data on one substance can be found in doi:10.1101/2020.06.24.163345.

The assay has as its target SisCmr7-β (Cmr7 subunit of the S. islandicus Cmr-β complex), dimer (S. islandicus (REY15A)). Briefly: cryo-EM structure.

“SisCmr7-β (Cmr7 subunit of the S. islandicus Cmr-β complex), dimer (natural protein)” gave a stoichiometry N of 2.

For orientation: stoichiometry N means a count of units in the complex or per binding partner.
